In patent US20250381223A1 (UTC THERAPEUTICS SHANGHAI, published 2025):
Numbering of substitutions follows the chain as printed. Several values for one entry are separate records, joined by “and”; a condition that tells them apart may be missing. Equal values may be shown once. Each block holds one binder with its values, some of them ahead of it.

Experiments:
[1] = biological target: T1, CD40 (analyte of the SPR assay) (UniProt P25942 21-193); experiment: SPR (Biacore 2000); antibody captured on protein A chip, CD40 3.125-100 nM; heterogeneous ligand model, kd1
T1 construct: Injected at 3.125-100 nM over captured antibody; also called CD40 antigen
Description: (§1) The affinity kinetics of the affinity-matured antibodies were detected using surface plasmon resonance (SPR) technique.
(§2) The experimental procedures were as follows: The binding affinities between the antibodies and the CD40 antigen were detected by SPR technique using Biacore 2000 (Cytiva, Sweden). All experiments were performed at 25° C. […] CD40 diluted in a 2-fold gradient (3.125-100 nM) was injected into the mobile phase. The association time was set at 90 s and the dissociation time at 300 s. The chip surface was regenerated by incubation with 10 mM Glycine-HCl (pH 1.5) for 30 s to remove the bound CD40 and antibody. The affinity of the antibody was simulated using a biphasic ligand model (heterogenerous ligand mode) in the build-in Biacore Evaluation software of the machine.

[2] = biological target: T1, CD40 (analyte of the SPR assay); experiment: SPR (Biacore 2000); antibody captured on protein A chip, CD40 3.125-100 nM; heterogeneous ligand model, kd2
Description: as §2

[3] = biological target: T1, CD40 (analyte of the SPR assay); experiment: SPR (Biacore 2000); antibody captured on protein A chip, CD40 3.125-100 nM; heterogeneous ligand model, ka2
Description: as §1, §2

[4] = biological target: T1, CD40 (analyte of the SPR assay); experiment: SPR (Biacore 2000); antibody captured on protein A chip, CD40 3.125-100 nM; heterogeneous ligand model, KD1
Description: as §2

[5] = biological target: T1, CD40 (analyte of the SPR assay); experiment: SPR (Biacore 2000); antibody captured on protein A chip, CD40 3.125-100 nM; heterogeneous ligand model, ka1
Description: as §2

[6] = biological target: T2, recombinant human CD40-His antigen protein (human, UniProt P25942 21-193); experiment: ELISA; plate coated with CD40-His 2 µg/mL; IgG1, anti-human IgG-Fc (HRP)
T2 construct: Bought protein; also called recombinant CD40-His protein; CD40 antigen; not shown: His tag
Description: Therefore, the affinity of the CD40 antibody (in the form of a human classical monoclonal antibody IgG1) was detected by in vitro binding ELISA. The brief experimental procedures were as follows: [0569] (1) Construction of antibody expression plasmid: an antibody VH region was subcloned into a pEF vector containing a human CH1-Fc antibody fragment, and an antibody VL region was subcloned into a pEF vector containing a human CL antibody fragment. [0570] (2) Antibody expression: 33 μg of an antibody heavy chain expression plasmid and 67 μg of an antibody light chain expression plasmid were co-transfected into 293F suspension cells by PEI. After 4 days of culture, the supernatant was collected by centrifugation. [0571] (3) Antibody purification: the protein supernatant and protein A purification medium were incubated on ice for 2 h, and then the supernatant and the purification medium were separated by a gravity column. The purification medium was rinsed thoroughly with 100 mL of pre-cooled PBS to remove impure proteins, and finally, the target protein was eluted from the purification medium with 5-10 mL of 0.1 M Glycine-HCl (pH 2.7), and 1/10 volume of 1 M Tris-HCl (pH 9.0) was immediately added to neutralize the antibody. […] After the protein concentration was measured with A280, the antibody was packaged and cryopreserved at −80° C. […]

[7] = biological target: T1, CD40 (analyte of the SPR assay); experiment: SPR (Biacore 2000); antibody captured on protein A chip, CD40 3.125-100 nM; heterogeneous ligand model, KD2
Description: as §2

[8] = biological target: T2, recombinant human CD40-His antigen …; experiment: ELISA; plate coated with CD40-His 2 µg/mL; HRP-anti-hFc
Description: The binding activities of the affinity-matured antibodies for antigen CD40 were detected by ELISA. The experimental procedures were as follows: [0637] 1. 50 μL of recombinant CD40-His protein at a concentration of 2 μg/mL was added to each well of an ELISA plate, and the plate was incubated at 4° C. overnight. […] 2. The next day, the ELISA plate was washed 3 times with PBST (containing 0.05% Tween-20). [0639] 3. 250 μL of 5% skim milk powder (dissolved in PBS) was added to each well of the ELISA plate, and the plate was incubated at room temperature for 2 h. [0640] 4. The plate was washed 3 times with PBST, antibodies with different dilution ratios were added to the ELISA plate at 50 μL/well, and the plate was incubated at room temperature for 60 min. [0641] 5. The plate was washed 3 times with PBST, 50 μL of HRP-anti-hFc antibody was added to each well, and the plate was incubated at room temperature for 60 min. [0642] 6. The plate was washed 3 times with PBST, 50 μL of TMB was added to each well, and after color development at room temperature, 50 μL of 2 M HCl was added to each well to stop the reaction. The plate was read at 450 nm.

[9] = biological target: T3, mesothelin-Fc recombinant protein (human, UniProt Q13421 296-580, limits assumed); experiment: flow cytometry, T cells with CAR mRNA, mesothelin-Fc + PE-anti-IgG-Fc; Control 0.63
T3 construct: construct not described; also called Meso-Fc; not shown: Fc part
T3 sequence (Q13421 other isoform, or with tags, fused parts or gaps limits assumed): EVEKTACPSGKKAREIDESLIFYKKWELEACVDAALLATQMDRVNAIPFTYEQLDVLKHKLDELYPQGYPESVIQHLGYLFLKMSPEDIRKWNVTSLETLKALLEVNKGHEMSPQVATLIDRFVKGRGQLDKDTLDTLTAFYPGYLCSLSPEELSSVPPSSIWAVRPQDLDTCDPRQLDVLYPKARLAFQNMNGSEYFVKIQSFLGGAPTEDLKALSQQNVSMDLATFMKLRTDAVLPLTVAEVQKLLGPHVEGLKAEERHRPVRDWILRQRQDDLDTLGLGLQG
Description: Mesothelin CAR mRNA obtained in Example 26 above was introduced into A549 tumor cells and T cells by electroporation, and the procedures are as follows: A549 tumor cells and T cells were collected and washed 3 times with the Opti-MEM medium. The cell pellet was resuspended in the Opti-MEM medium and the cell concentration was adjusted to 1×10e7 cells/mL. 10 μg of RNA was aliquoted into 1.5-mL EP tubes, 100 μL of T cells or A549 cells were added, followed by mixing well. 100 μL of cells mixed with RNA were added to the BTX electroporation cuvette and slight tapping was performed to avoid air bubbles. Electroporation was performed using a BTX instrument under the following parameters: for T cells: 500 V voltage, 0.7 ms; for A549 tumor cells: 300 V voltage, 0.5 ms. The cells were then transferred to a pre-warmed medium and cultured at 37° C. The binding of mesothelin CART cells to the mesothelin-Fc recombinant protein was determined by FACS staining. […] T cells without CAR molecules served as the control (“Mock”).

CD40-Fc [10] = biological target: T4, CD40-Fc ( for this staining reagent …, UniProt P25942); experiment: flow cytometry, lentivirus-transduced T cells, CD40-Fc + PE-anti-Fc
T4 construct: soluble Fc fusion; Staining reagent, detected with PE-anti-Fc
Description: (§3) The transduction efficiency of the CAR-T cells was detected as follows: […] CAR-T cells were plated into each well of a 96-well plate, and the plate was washed once with PBS. 50 μL of Meso-Fc or CD40-Fc protein at a final concentration of 2 μg/mL was added to each well, and the mixture was incubated for 30 min at 4° C. The cells were washed 3 times with PBS, and 50 μL of PE-anti-Fc antibody at a final concentration of 1 μg/mL was added to each well. The mixture was incubated at 4° C. for 30 min. After being washed twice with PBS, the cells were detected by a flow cytometer.

CD40-Fc [11] = biological target: T5, CD40-Fc (human, UniProt P25942); experiment: flow cytometry of T cells electroporated with 2 µg M12 CAR mRNA alone; CD40-Fc + PE-anti-Fc
T5 construct: part fused to Fc; staining reagent of the flow cytometry; also called recombinant human CD40-Fc antigen protein

CD40-Fc [12] = biological target: T4, CD40-Fc; experiment: flow cytometry, lentivirus-transduced T cells, CD40-Fc 2 µg/mL + PE-anti-Fc; UTD 0.66, M12 1.16
Description: as §3

B1: 40.52 (antibody, V domains shown)
VH: QVQLVQSGAEVKKPGSSVKVSCKASGGTFSSYAISWVRQAPGQGLEWMGMINPSGGTTSYAQKFQGRVTMTRDTSTSTVYMELSSLRPEDTAVYYCARGFRMDQWGQGTLVTVSS
VL: QSALTQPPSASGSPGQSVTISCTGTSSDVGAYNFVSWYQQHPGNAPKLIIYDVRKRPSGIPDRFSASKSGNTASLTVSGLQADDEADYYCSSYAGNNNLVFGGGTKLTVL
notes: Tested as human IgG1 (VH on human CH1-Fc, VL on human CL)
koff [1]: 0.00115 s⁻¹
koff [2]: 0.0885 s⁻¹
kon [3]: 861000 M⁻¹ s⁻¹
Kd [4]: 0.864 nM
kon [5]: 1.34e+06 M⁻¹ s⁻¹
EC50 [6]: 0.0492 µg/mL and 344 nM
Kd [7]: 103 nM
EC50 [8]: 0.0975 µg/mL

B2: 4052.17 (antibody, V domains shown)
VH: B1 VH
VL: B1 VL with N98E, L99M
koff [1]: 0.00102 s⁻¹
koff [2]: 0.0362 s⁻¹
kon [3]: 748000 M⁻¹ s⁻¹
Kd [4]: 0.686 nM
kon [5]: 1.49e+06 M⁻¹ s⁻¹
Kd [7]: 48.4 nM
EC50 [8]: 0.0944 µg/mL

Other lines, results leading:

percent of cells in the gate [9]: 86.5%
binding result (CD40-Fc [10]): no binding (tested: 2 µg/mL)
binding result (CD40-Fc [11]): no binding
B3: anti-mesothelin scFv-M12 (scFv)
scFv: AIRLTQSPSLLSASVGDRVTVTCRASQGGGNYLAWYQQKPGKAPKLLIYGASKLQSGVPSRFSGSGSGTEFTLTISSLQPEDFATYYCQQLNSYPVTFGQGTKVDIKGGGGSGGGGSGGGGSEVQLVESGAEVKKPGASVKVSCKASGYTFTTYYIHWVRQAPGQGLEWMGIINPSSGSTTYTQKFQGRVTMTRDTSTSTVYIELSGLRSEDTAVYYCARGETLRGYFDYWGQGTLVTVSS
notes: On mRNA-electroporated T cells as CAR; also called Meso-CAR (M12)

percent of cells in the gate (CD40-Fc [12]): 39.8%
B4: A40C2828 (other)
membrane fusion protein with an anti-CD40 antibody part: QVQLVQSGAEVKKPGASVKVSCTASGFNIKDYYVHWVKQAPGQGLEWMGRIDPEDGDSKYAPKFQGKATMTADTSTSTVYMELSSLRSEDTAVYYCTTSYYVGTYGYWGQGTLVTVSSGGGGSGGGGSGGGGSDIQMTQSPSSLSASVGDRVTITCSASSSVSYMLWFQQKPGKAPKLLIYSTSNLASGVPSRFSGSGSGTDFTLTISSLQPEDFATYYCQQRTFYPYTFGGGTKVEIKRTASIEVMYPPPYLDNEKSNGTIIHVKGKHLCPSPLFPGPSKPFWVLVVVGGVLACYSLLVTVAFIIFWVRSKRSRLLHSDYMNMTPRRPGPTRKHYQPYAPPRDFAAYRS
notes: also called new A40C28; New A40C28
